Reference: PMC8099430, “CM1-driven assembly and activation of yeast γ-tubulin small complex underlies microtubule nucleation” (eLife, 2021)
Numbering of substitutions follows the chain as printed. Numbers in names are those of the source.

T1: Spc98p (S. cerevisiae, UniProt P53540 1-846)
T1 construct: Spc98p, S. cerevisiae homologue of GCP3; the 674 a.a. built in the model are said to be 80% of the protein; also called GCP3 homologue; source: pFastBac-Spc98p construct; purified as part of γTuSC, prepared essentially as described (Vinh et al., 2002; Lyon et al., 2016)
T1 sequence: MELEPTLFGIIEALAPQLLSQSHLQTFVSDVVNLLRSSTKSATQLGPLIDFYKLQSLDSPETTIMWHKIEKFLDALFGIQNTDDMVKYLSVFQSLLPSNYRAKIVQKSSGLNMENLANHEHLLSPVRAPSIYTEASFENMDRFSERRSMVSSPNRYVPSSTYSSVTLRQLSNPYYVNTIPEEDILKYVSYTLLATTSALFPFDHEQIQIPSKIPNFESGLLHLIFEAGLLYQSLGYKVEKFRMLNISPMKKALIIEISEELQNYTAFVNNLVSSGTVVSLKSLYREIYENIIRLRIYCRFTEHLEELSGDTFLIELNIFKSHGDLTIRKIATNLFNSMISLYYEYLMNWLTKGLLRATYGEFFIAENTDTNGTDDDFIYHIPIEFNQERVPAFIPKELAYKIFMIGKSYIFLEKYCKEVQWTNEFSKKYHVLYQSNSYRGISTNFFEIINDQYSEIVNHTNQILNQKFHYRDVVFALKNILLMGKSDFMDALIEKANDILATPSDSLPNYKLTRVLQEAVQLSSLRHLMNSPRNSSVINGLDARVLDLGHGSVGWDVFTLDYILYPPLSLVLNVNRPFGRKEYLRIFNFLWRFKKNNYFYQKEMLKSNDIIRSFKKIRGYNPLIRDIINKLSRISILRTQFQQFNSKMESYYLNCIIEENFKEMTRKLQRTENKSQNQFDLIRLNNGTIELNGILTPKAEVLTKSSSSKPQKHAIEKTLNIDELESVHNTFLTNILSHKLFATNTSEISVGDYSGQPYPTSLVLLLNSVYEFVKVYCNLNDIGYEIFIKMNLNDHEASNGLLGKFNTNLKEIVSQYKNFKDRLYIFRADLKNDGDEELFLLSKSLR

B1: Spc110p^1-401-GST (domain or fragment, S. cerevisiae, UniProt P32380 1-401, looked up)
chain: MDEASHLPNGSLKNMEFTPVGFIKSKRNTTQTQVVSPTKVPNANNGDENEGPVKKRQRRSIDDTIDSTRLFSEASQFDDSFPEIKANIPPSPRSGNVDKSRKRNLIDDLKKDVPMSQPLKEQEVREHQMKKERFDRALESKLLGKRHITYANSDISNKELYINEIKSLKHEIKELRKEKNDTLNNYDTLEEETDDLKNRLQALEKELDAKNKIVNSRKVDDHSGCIEEREQMERKLAELERKLKTVKDQVLELENNSDVQSLKLRSKEDELKNLMNELNELKSNAEEKDTQLEFKKNELRKRTNELNELKIKSDEMDLQLKQKQNESKRLKDELNELETKFSENGSQSSAKENELKMLKNKIAELEEEISTKNSQLIAKEGKLASLMAQLTQLESKLNQRD
notes: Spc110p, S. cerevisiae, residues 1-401; also called Spc110^1-401-GST; Spc110^1-401; not shown: GST, C-terminal, kept
B2: Spc110p^1-220 (domain or fragment, S. cerevisiae, UniProt P32380 1-220, looked up)
chain: MDEASHLPNGSLKNMEFTPVGFIKSKRNTTQTQVVSPTKVPNANNGDENEGPVKKRQRRSIDDTIDSTRLFSEASQFDDSFPEIKANIPPSPRSGNVDKSRKRNLIDDLKKDVPMSQPLKEQEVREHQMKKERFDRALESKLLGKRHITYANSDISNKELYINEIKSLKHEIKELRKEKNDTLNNYDTLEEETDDLKNRLQALEKELDAKNKIVNSRKVD
notes: also called Spc110^1-220; N-terminal domain of Spc110p; source: pFastBac-GST-Spc110p^1-220 construct; purified in filaments with γTuSC, prepared essentially as described (Kollman et al., 2010; Kollman et al., 2015)
B3: Spc97p (natural protein, S. cerevisiae)
chain: MEIKEVDDRAELLRYTNNIPLLGKLVNHQPLWSTNPKLKSFSLEKISAPDQRRVQEALVVKDLLNVLIGLEGTYIRYFNDYEPSDPETPIEFKIAKKMDPSFKTFSRRIVRYGKQYMILTRAYEKWSDTSFGMVLQRFAYEIRRFLEDVYLKTLVERLERDFNKVPNFSIRELEQIINETEVNKQMELLYNIYEEIFREIEERRTNQSSQEDFNNFMDSMKNESSLHLRLMVAFDTTVYPVPKGGAILKIFQQKILENLGDRSSVMFLKKLLNNISQDYCTMLYEWLTQGILNDPYQEFMTYDDLEGKTDNIFDTRDRAWDTQYFIRKDVLLRDCDSEEDKNLLFKMLRTGILLKVVRASLQIPTIPSNSSDITIQEINDFADLMEGSNLELYVDKCYSRANEIFLKLFFQGYDLINVLKHLQQIFLGYQSGHNVLKFLTKNMGELTKHYRNDNNANYDKLLQNFELERQSENPNNLMRQLLMIQFDTETLPQVLSHYLQIYPEVPENNSANDDSDPLMHANNFKNMNAILFDELSKERTGAYHGSNLELYTPKSAIYHLKFDINIPYPLNIIISRTCMIKYQIILRYQLVLQYHSRLLDETWMDLNKTPSWKYRGYSHTVKRRIVRATRVLHAKMNHFIKTIMEYFNQNVIDKEVYSLEKCYRNPTLAVAIQNELEGGLTNIMTNRCLSDLIPLQLQIFDIVYKFCKFIKSMRAKLCQLDPVLYEKHKSGMMKTLNEGYRTNNGGQEDVGYQEDAALELIQKLIEYISNASSIFRKCLINFTQELSTEKFDFYDSSSVDAAGIERVLYSIVPPRSASASSQR
notes: Spc97p, S. cerevisiae homologue of GCP2; the 712 a.a. built in the model are said to be 87% of the protein; also called GCP2 homologue; source: pFastBac-Spc97p construct; purified as part of γTuSC, prepared essentially as described (Vinh et al., 2002; Lyon et al., 2016)
B4: γ-tubulin (Tub4p) (natural protein, S. cerevisiae)
chain: MGGEIITLQAGQCGNHVGKFLWSQLAKEHAIGTDGLSQLPDSSTERDDDTKPFFRENSRNKFTPRAIMMDSEPSVIADVENTFRGFFDPRNTWVASDGASAGNSWANGYDIGTRNQDDILNKIDKEIDSTDNFEGFQLLHSVAGGTGSGLGSNLLEALCDRYPKKILTTYSVFPARSSEVVVQSYNTILALRRLIEDSDATVVFDNASLLNISGKVFRNPNIDLQHTNQLISTIISSVTNSIRFPSYMYSSMSSIYSTLIPSPELHFLSPSFTPFTSDYIHDDIAHKGHSSYDVMLDLLDPSNSLVSTAMNNPTYFNVYNTIIGNVEPRQISRAMTKLQQRIKFPSWSSSAMHVNIGRRSPYLPLQPNENEVSGMMLSNMSTVVNVFENACNTFDKVFAKGAFLNNYNVGDLFQSMQNVQDEFAESREVVQSLMEDYVAAEQDSYLDDVLVDDENMVGELEEDLDADGDHKLV
notes: Tub4p, S. cerevisiae γ-tubulin; the 453 a.a. built in the model are said to be 96% of the protein; source: pFastBac-Tub4p construct; purified as part of γTuSC, prepared essentially as described (Vinh et al., 2002; Lyon et al., 2016)
B5: Tub4p S58C/G288C (natural protein, S. cerevisiae)
chain: B4 chain with S58C, G288C
modifications: engineered cysteines oxidised to disulfides (overnight dialysis into 1 mM oxidized glutathione)
notes: Tub4p, S. cerevisiae γ-tubulin, with S58C and G288C; also called γ-tubulin engineered with disulfides; γ-tubulin of γTuSC^SS / γTuRC^SS; source: pFastBac-Tub4p^S58C/G288C construct (Kollman et al., 2015); purified in filaments prepared essentially as described (Kollman et al., 2010; Kollman et al., 2015)

Legend:
[1] = biological target: γTuSC (Saccharomyces cerevisiae) (UniProt P53378); details: cited from earlier work
Spc97p [2] = biological target: B3; assay: cross-linking; XL-MS; DSS (0.44 mM, 3 min, RT) or EDC (5.4 mM plus 2.7 mM Sulfo-NHS, 30 min, RT); 0.4 µM γTuSC and 0.8 µM Spc110; 40 mM HEPES pH 7.0, 150 mM KCl; details: both partners purified
[3] = biological target: the molecule itself; assay: cryo-EM structure; γTuRC^WT helical filaments of γTuSC with Spc110p^1-220 (open and closed classes); 40 mM HEPES pH 7.5, 2 mM MgCl2, 1 mM EGTA, 1 mM GDP, 100 mM KCl, 1 mM DTT, 2.5% glycerol
Spc97p [4] = biological target: B3; assay: cryo-EM structure; γTuRC^SS helical filaments (disulfide-trapped closed state) of γTuSC^SS with Spc110p^1-220; 40 mM HEPES pH 7.5, 2 mM MgCl2, 1 mM EGTA, 0.5 mM GTP, 100 mM KCl, 1 mM oxidized glutathione, 2.5% glycerol; details: both partners purified
Spc98p [5] = biological target: T1, Spc98p; assay: as above; details: both partners purified
Spc98p [6] = biological target: T1, Spc98p; assay: cryo-EM structure; γTuRC^WT helical filaments of γTuSC with Spc110p^1-220 (open and closed classes); 40 mM HEPES pH 7.5, 2 mM MgCl2, 1 mM EGTA, 1 mM GDP, 100 mM KCl, 1 mM DTT, 2.5% glycerol; details: both partners purified
Spc97p [7] = biological target: B3; assay: as above; details: both partners purified

| binding result (Spc97p [4]) | binding result (Spc98p [5]) | binding result (Spc98p [6]) | Molecule | also measured |
| --- | --- | --- | --- | --- |
|  |  |  | γTuSC (from UniProt P53378) | Kd [1]: 2000 nM |
|  |  |  | B1 | binding result (Spc97p [2]): binds |
| binds | binds |  | B2 | binding result [3]: binds |
|  |  | binds | B3 |  |
|  |  | binds | B4 | binding result (Spc97p [7]): binds |
| binds | binds |  | B5 |  |
